The values below come from patent US20100266598A1.

Assay [1] concerns the target Rhesus CCR5 (Rhesus Macaque). As to the kind of experiment: cell-based or functional assay.
Assay [2] has as its target human CCR5 (human) (UniProt P51681). As to the kind of experiment: cell-based or functional assay.

In assay [1], pre-immune rabbit IgG (antibody) gave a % Inhibition, Rhesus PBMC (#810) x 12E1/SIV239, inhibitor at 25 µg/ml of 0% and a No. of Syncytia, Rhesus PBMC (#810) x 12E1/SIV239, inhibitor at 25 µg/ml of 285 syncytia. In assay [2], this substance had a % Inhibition, PM1 x 12E1/BaL, inhibitor at 25 µg/ml of 0% and a No. of Syncytia, PM1 x 12E1/BaL, inhibitor at 25 µg/ml of 487 syncytia.

With monoclonal antibody (mAb) 2D7, in assay [1], the % Inhibition, Rhesus PBMC (#810) x 12E1/SIV239, inhibitor at 20 µg/ml amounted to 4% and the No. of Syncytia, Rhesus PBMC (#810) x 12E1/SIV239, inhibitor at 20 µg/ml came out at 258 syncytia. In assay [2], this substance displayed a % Inhibition, PM1 x 12E1/BaL, inhibitor at 20 µg/ml of 99%; a CCR5-tropic virus neutralization (percent inhibition of p24) at 50 µg/ml of 82 to 93%; an IC50 of PBMC infection by BaL, JR-CSF and 92US657 of 2 to 4 µg/mL; a No. of Syncytia, PM1 x 12E1/BaL, inhibitor at 20 µg/ml of 5 syncytia.
